Target: Biotinylated Human Thrombin (human) (UniProt P00734)
Assay: mRNA display selection on biotinylated human thrombin, round 2; NGS read frequency

counts: 86 counts
percentage (%): 0.0052%
Substance: mRNA-displayed cow antibody scaffold polypeptide with cassette RTKIK*NGL* (designed binder)

Reference: patent US20160312212A1, “COW ANTIBODY SCAFFOLD POLYPEPTIDE METHOD AND COMPOSITION” (Roche Sequencing Solutions, Inc., priority 2015, published 2016)
